The target of the data set is T1, GST-OsARF12 DBD (Oryza sativa (cDNA of ZH11), UniProt Q0J951 121-247).
T1 sequence: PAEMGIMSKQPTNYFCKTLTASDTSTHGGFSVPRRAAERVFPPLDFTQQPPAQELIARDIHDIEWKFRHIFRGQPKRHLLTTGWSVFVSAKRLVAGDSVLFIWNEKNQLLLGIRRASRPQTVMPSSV
Description: EMSA; LightShift Chemiluminescent EMSA Kit (Thermo Scientific); buffer, salt, pH and temperature not stated. Particulars: protein: recombinant, tags: GST (N-terminal, pGEX-4T-1), blunt. For orientation: In EMSA bound probe runs differently from free probe, usually more slowly.

B1: OsWRKY13 promoter AuxRE probe (dsDNA)
DNA 1: TGGTTCGTGATTAAGGGTTTGGTTACACCGTGTCCCGCTCACGGATAGGCTGCTTAATTCTCTTT
DNA 2: AAAGAGAATTAAGCAGCCTATCCGTGAGCGGGACACGGTGTAACCAAACCCTTAATCACGAACCA
For B1, for the setting “label: biotin”, the binding result was “binds”.

B2: OsWRKY13 AuxRE mutant probe (mCold) (dsDNA)
DNA 1: GTTACACCGAAAAAAGCTCACGGAT
DNA 2: ATCCGTGAGCTTTTTTCGGTGTAAC
In the case of B2, the binding result (label: biotin as probe) was “no binding”.
